Residue numbers refer to the chain shown, from its start.
B1: deimmunized J415, heavy chain version 1 with light chain version 5 (antibody, V domains shown)
VH: EVKLEESGGGLVQPGGSMKISCKASGFTFSNYWMNWVRQTPEKGLEWVALIRSQSNNFATHYAESVKGRVIISRDDSKSSVYLQMNSLRAEDTAVYYCTRRWNNFWGQGTTVTVSS
VL: NIVMTQFPKSMSASAGERMTLTCKASENVGTYVSWYQQKPTQSPKMLIYGASNRFTGVPDRFSGSGSGTDFILTISSVQAEDLVDYYCGQSYTFPYTFGGGTKLEMK
B2: deimmunized J415, heavy chain version 2 with light chain version 5 (antibody, V domains shown)
VH: B1 VH with K23V
VL: B1 VL

Biological target: prostate specific membrane antigen (PSMA) on LNCaP cells (human, UniProt Q04609)
Test: ELISA on plates coated with LNCaP membrane preparation, purified antibody

| Binder | fold change against the chimeric antibody [fold less] |
| --- | --- |
| B1 | 2 |
| B2 | 2 |

— patent US7666414B2, “Methods for treating prostate cancer using modified antibodies to prostate-specific membrane antigen” (Cornell Research Foundation, Inc., dated 2010)
